The text below walks through data of US10907134B2, “Mutated genes for the catalytic protein of oplophorus luciferase and use thereof” (JNC CORPORATION, priority 2013, dated 2021).

Assay [1] in a line: Luminescence activity of KAZ mutants (pCold II, E. coli) in supernatant and precipitate of crude enzyme solution. It is filed as biochemical. The settings on record: Table 3, pCold II, E. coli BL21, 0.5 μg coelenterazine, 60 seconds; for Relative Luminescence Activity (Imax) Precipitate: 5 μL precipitate; for Relative Luminescence Activity (Imax) Supernatant: 5 μL supernatant. As for the experimental part:
In order to express the KAZ mutants in E. coli, the recombinant plasmid prepared in EXAMPLE 3 was used. The E. coli BL21 strain (Novagen, Madison, Wis.) was used as a host cell. The BL21 strain carrying the recombinant plasmid was incubated in 5 mL of Luria-Bertani medium (hereinafter designated as LB medium) containing ampicillin (50 μg/mL) at 37° C. for 18 hours. This seed culture, 0.1 mL, was inoculated to 10 mL of LB medium and incubated for 3 hours, followed by cooling in an ice-water bath for 1 hour. IPTG was added to the culture medium at a final concentration of 1 mM, followed by incubation at 15° C. for further 20 hours. After completion of the incubation, 1 mL of the cultured medium was harvested by centrifugation at 10,000 rpm for 2 minutes. The thus collected E. coli cells were suspended in 0.5 mL of 30 mM Tris-HCl (pH 7.6)-10 mM EDTA (manufactured by Wako Pure Chemical Industries, Ltd.) (hereinafter designated as TE). The E. coli cells were disrupted by sonication for 3 seconds using a Branson Model 250 Sonifier (Danbury, Conn.) to give a crude enzyme solution. After 0.5 mL of the crude enzyme solution was further centrifuged at 10,000 rpm for 2 minutes to separate the supernatant from the precipitate, the precipitate was suspended in 0.5 mL of TE. Then 20 μL each of the supernatant and precipitate were analyzed by SDS-PAGE to confirm the presence or absence of soluble and insoluble proteins. The results are shown in FIG. 1, wherein M and 1 to 17 denote: M: molecular weight size markers; 1: KAZ; 2 KAZ-A4E; 3: KAZ-Q11R; 4: KAZ-Q18L; 5: KAZ-L27V; 6: KAZ-A33N; 7: KAZ-K43R; 8: KAZ-V44I; 9: KAZ-A54I; 10: KAZ-F68D; 11: KAZ-L72Q; 12: KAZ-M75K; 13: KAZ-I90V; 14: KAZ-P115E; 15: KAZ-Q124K; 16: KAZ-Y138I; 17: KAZ-N166R and 18: dnKAZ.
A luminescence reaction was started by the addition of 5 μL each of the supernatant and precipitate obtained in EXAMPLE 4 to 100 μL of TE containing 0.5 μg of coelenterazine (manufactured by JNC Corp.). The luminescence activity was measured for 60 seconds using a luminometer (manufactured by Atto Corp.: AB2200) and expressed in terms of relative luminescence activity (Imax).
To express the KAZ mutants with two amino acid substitutions and three amino acid substitutions in E. coli using a pCold II vector, the recombinant plasmid constructed in EXAMPLE 13 and pCold-V44I-KAZ, pCold-A54I-KAZ, pCold-Y138I-KAZ prepared in EXAMPLE 3 were used. The supernatant and precipitate of each crude enzyme solution were prepared in the same manner as EXAMPLE 4, using the E. coli BL21 starin (Novagen, Madison, Wis.) as a host cell. The supernatant and precipitate, 20 μL each, were subjected to SDS-PAGE analysis to confirm the presence or absence of soluble proteins and insoluble proteins. In FIG. 3, M and 1 to 9 are as follows. M: molecular weight markers; 1: dnKAZ; 2: KAZ; 3: KAZ-V44I-A54I; 4: KAZ-V44I-Y138I; 5: KAZ-A54I-Y138I; 6: KAZ-V44I-A54I-Y138I; 7: KAZ-V44I; 8: KAZ-A54I; and 9: KAZ-Y138I.
The luminescence activities of 5 μL each of the supernatant and precipitate obtained in EXAMPLE 14 were determined in the same manner as EXAMPLE 5. The luminescence activity was assayed with a luminometer (manufactured by Atto Inc.: AB2200) for 60 seconds, and the maximum intensity of luminescence (Imax) was shown as relative luminescence activity.

Assay [2] concerns CHO-K1 cells. The assay is described as follows: Luminescence activity of KAZ mutants expressed in animal culture cells with signal peptide of Gaussia luciferase for secretion. In kind it is cell-based, Chinese hamster. The settings on record: Table 5, pcDNA3-GLsp- vectors, CHO-K1, 48 hours, 0.5 μg coelenterazine; for Relative Luminescence Activity (Imax) (%) Cell Extracts: 5 μL cell extracts; for Relative Luminescence Activity (Imax) (%) Culture Medium: 5 μL culture medium. The procedure:
Chinese hamster ovary cell line CHO-K1 was cultured in Ham's F-12 medium (manufactured by Wako Pure Chemical Industries, Ltd.) supplemented with 10% (v/v) fetal bovine serum (manufactured by Biowest Inc.). The CHO-K1 cells were plated in a 6-well plate in 1×10^5 cells/well/2 mL medium (n=2) and cultured in an incubator at 37° C. in 5% (v/v) CO2. After 24 hours, the purified recombinant plasmid was transfected to CHO-K1 cells using a FuGene HD transfection kit (manufactured by Promega Corp.), which was provided for subsequent experiment. Specifically, 1 μg of the recombinant plasmid pGL4.13 [Luc2/sv40], 0.1 μg of the internal standard vector and 3 μL of FuGene HD were added to 100 μL of the medium, which was allowed to stand at room temperature for 15 minutes. Subsequently, 100 μL of the DNA-FuGene complex was added to the cells in the 6 wells. After incubation for 48 hours, the culture medium was collected. On the other hand, the KAZ mutants expressed in the cells were washed 3 times with 3 mL of 1×PBS, then suspended in 1 mL of 1×PBS and disrupted on ice by ultrasonication, which was used as enzyme solutions of the cell-extracts of KAZ mutants.
A luminescence reaction was started by adding 5 μL of the culture media and cell extracts obtained in EXAMPLE 10 to 100 μL of 30 mM Tris-HCl (pH 7.6)-10 mM EDTA (manufactured by Wako Pure Chemical Industries, Ltd.) containing 0.5 μg of coelenterazine (manufactured by INC Corp.). The luminescence activity was determined using a luminometer (manufactured by Atto Inc.: AB2200) for 60 seconds, and the maximum intensity of luminescence (Imax) was defined as a percentage.
Culture media of the KAZ mutants with two amino acid substitutions and KAZ mutants with three amino acid substitutions and the enzyme solutions of the cell-extracts of KAZ mutants were prepared in the same manner as EXAMPLE 10.
In the resultant enzyme solutions and the enzyme solutions of the cell-extracts of KAZ mutants, luminescence activities were determined in the same manner as EXAMPLE 11.

The nature of assay [3]: Luminescence activity of ZZ-fused KAZ mutants in crude enzyme solutions. In kind it is biochemical. The settings on record: Table 4; ZZ-fused (pCold-ZZ-P-); 1 μL crude enzyme solution, 1 mM DTT; 1 μg coelenterazine. The procedure:
To express the ZZ-fused KAZ mutants in E. coli, the recombinant plasmid prepared in EXAMPLE 6 was used. Crude enzyme solutions were prepared in the same manner as EXAMPLE 4 using the E. coli BL21 strain (Novagen, Madison, Wis.) as a host cell. The resultant crude enzyme solution, 5 μL, was subjected to SDS-PAGE analysis to confirm expression of the proteins (FIG. 2). In FIG. 2, M and 1 to 18 are the same as described in FIG. 1.
DTT was added to the crude enzyme solution obtained in EXAMPLE 7 at a final concentration of 1 mM and the mixture was allowed to stand in an ice water for more than 5 hours. A luminescence reaction was started by adding 1 μL of the crude enzyme solution to 100 μL of TE containing 1 μg of coelenterazine (manufactured by JNC Corp.). The luminescence activity was determined using a luminometer (manufactured by Atto Inc.: AB2200) for 60 seconds, and the maximum intensity of luminescence (Imax) was shown as relative luminescence activity.
To express the ZZ-fused KAZ mutants in E. coli, the recombinant plasmid constructed in EXAMPLE 16 and pCold-ZZ-P-V44I-KAZ, pCold-ZZ-P-A54I-KAZ, pCold-ZZ-P-Y138I-KAZ prepared in EXAMPLE 6 were used. Crude enzyme solutions were prepared in the same manner as EXAMPLE 7, using the E. coli BL21 strain (Novagen, Madison, Wis.) as a host cell. DTT was added to the crude enzyme solutions at a final concentration of 1 mM. The mixtures were allowed to stand over 5 hours on ice, and luminescence activities were then assayed. The luminescence activities were determined by the method described in EXAMPLE 8. Also, 5 μL of the resultant crude enzyme solutions were subjected to SDS-PAGE analysis to confirm protein expression (FIG. 4). In FIG. 4, M and 1 to 9 are as follows. M: molecular weight size markers; 1: ZZ-P-KAZ; 2: ZZ-P-KAZ-V44I; 3: ZZ-P-KAZ-A54I; 4: ZZ-P-KAZ-Y138I; 5: ZZ-P-KAZ-V44I-A54I; 6: ZZ-P-KAZ-V44I-Y138I; 7: ZZ-P-KAZ-A54I-Y138I; 8: ZZ-P-KAZ-V44I-A54I-Y138I; and 9: ZZ-P-dnKAZ.

B1: KAZ-F68D: KAZ with single amino acid substitution F68D (protein)
chain: FTLADFVGDWQQTAGYNQDQVLEQGGLSSLFQALGVSVTPIQKVVLSGENGLKADIHVIIPYEGLSGDQMGLIEMIFKVVYPVDDHHFKIILHYGTLVIDGVTPNMIDYFGRPYPGIAVFDGKQITVTGTLWNGNKIYDERLINPDGSLLFRVTINGVTGWRLCENILA
Consider B1, for which, in assay [1], the “Relative Luminescence Activity (Imax) Precipitate” value is given as 0.2 and the “Relative Luminescence Activity (Imax) Supernatant” value was 5.4. In addition, in assay [2], the “Relative Luminescence Activity (Imax) (%) Cell Extracts” value worked out at 0.3% and the “Relative Luminescence Activity (Imax) (%) Culture Medium” value is reported as “less than 0.01%”. For the same molecule, the “Relative Luminescence Activity (Imax)” value in assay [3] is 2.7.

B2: KAZ-P115E: KAZ with single amino acid substitution P115E (protein)
chain: FTLADFVGDWQQTAGYNQDQVLEQGGLSSLFQALGVSVTPIQKVVLSGENGLKADIHVIIPYEGLSGFQMGLIEMIFKVVYPVDDHHFKIILHYGTLVIDGVTPNMIDYFGRPYEGIAVFDGKQITVTGTLWNGNKIYDERLINPDGSLLFRVTINGVTGWRLCENILA
For B2, in assay [1], the “Relative Luminescence Activity (Imax) Precipitate” value was 1.1 and the “Relative Luminescence Activity (Imax) Supernatant” value came out at 16. For the same molecule, in assay [2], the “Relative Luminescence Activity (Imax) (%) Cell Extracts” value was determined as 0.3% and the “Relative Luminescence Activity (Imax) (%) Culture Medium” value was “less than 0.01%”. Also, the “Relative Luminescence Activity (Imax)” value in assay [3] stood at 4.5.

B3: KAZ-L72Q: KAZ with single amino acid substitution L72Q (protein)
chain: FTLADFVGDWQQTAGYNQDQVLEQGGLSSLFQALGVSVTPIQKVVLSGENGLKADIHVIIPYEGLSGFQMGQIEMIFKVVYPVDDHHFKIILHYGTLVIDGVTPNMIDYFGRPYPGIAVFDGKQITVTGTLWNGNKIYDERLINPDGSLLFRVTINGVTGWRLCENILA
On to B3, for which, in assay [1], the “Relative Luminescence Activity (Imax) Precipitate” value is listed as 0.6 and the “Relative Luminescence Activity (Imax) Supernatant” value was determined as 7.2. Further, in assay [2], the “Relative Luminescence Activity (Imax) (%) Cell Extracts” value was 0.4% and the “Relative Luminescence Activity (Imax) (%) Culture Medium” value is “less than 0.01%”. Also, the “Relative Luminescence Activity (Imax)” value in assay [3] is listed as 2.5.

B4: KAZ-M75K: KAZ with single amino acid substitution M75K (protein)
chain: FTLADFVGDWQQTAGYNQDQVLEQGGLSSLFQALGVSVTPIQKVVLSGENGLKADIHVIIPYEGLSGFQMGLIEKIFKVVYPVDDHHFKIILHYGTLVIDGVTPNMIDYFGRPYPGIAVFDGKQITVTGTLWNGNKIYDERLINPDGSLLFRVTINGVTGWRLCENILA
For B4, in assay [1], the “Relative Luminescence Activity (Imax) Precipitate” value was determined as 0.4 and the “Relative Luminescence Activity (Imax) Supernatant” value stood at 4.6. Besides, in assay [2], the “Relative Luminescence Activity (Imax) (%) Cell Extracts” value worked out at 0.2% and the “Relative Luminescence Activity (Imax) (%) Culture Medium” value is “less than 0.01%”. In addition, the “Relative Luminescence Activity (Imax)” value in assay [3] is 1.3.

B5: KAZ-I90V: KAZ with single amino acid substitution I90V (protein)
chain: FTLADFVGDWQQTAGYNQDQVLEQGGLSSLFQALGVSVTPIQKVVLSGENGLKADIHVIIPYEGLSGFQMGLIEMIFKVVYPVDDHHFKVILHYGTLVIDGVTPNMIDYFGRPYPGIAVFDGKQITVTGTLWNGNKIYDERLINPDGSLLFRVTINGVTGWRLCENILA
As for B5, in assay [1], the “Relative Luminescence Activity (Imax) Precipitate” value came to 0.4 and the “Relative Luminescence Activity (Imax) Supernatant” value came out at 2.1. Moreover, in assay [2], the “Relative Luminescence Activity (Imax) (%) Cell Extracts” value came out at 0.3% and the “Relative Luminescence Activity (Imax) (%) Culture Medium” value is given as “less than 0.01%”. The “Relative Luminescence Activity (Imax)” value in assay [3] is reported as 1.8.
